In paper PMC12416549 (2024):

T1: TNFR1 (Homo sapiens, UniProt P19438)
T1 chain: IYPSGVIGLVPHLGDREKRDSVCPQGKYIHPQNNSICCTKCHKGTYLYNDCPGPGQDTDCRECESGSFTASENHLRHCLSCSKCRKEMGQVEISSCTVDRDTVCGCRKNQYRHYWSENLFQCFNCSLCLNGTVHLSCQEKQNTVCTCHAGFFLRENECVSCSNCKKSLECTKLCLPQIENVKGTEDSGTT


Target: T1, TNFR1
Assay: yeast display SC50

Row | Binder | apparent Kd (screen)
1 | A28T (designed binder) MTLQELLREEALRRAEAEAFRYALELLTEKFPEQKEYLLDLAEEIESQIRSLSGVDVEDVRKFLDKEWAWVKELLAEHPAELAEVEAARAARLAELRAEVEAKVAA | 1.27 nM
2 | A11E (designed binder) MTLQELLREEELRRAEAEAFRYALELLAEKFPEQKEYLLDLAEEIESQIRSLSGVDVEDVRKFLDKEWAWVKELLAEHPAELAEVEAARAARLAELRAEVEAKVAA | 0.446 nM
3 | R14M (designed binder) MTLQELLREEALRMAEAEAFRYALELLAEKFPEQKEYLLDLAEEIESQIRSLSGVDVEDVRKFLDKEWAWVKELLAEHPAELAEVEAARAARLAELRAEVEAKVAA | 0.718 nM
4 | A23T (designed binder) MTLQELLREEALRRAEAEAFRYTLELLAEKFPEQKEYLLDLAEEIESQIRSLSGVDVEDVRKFLDKEWAWVKELLAEHPAELAEVEAARAARLAELRAEVEAKVAA | 0.539 nM
5 | E33I (designed binder) MTLQELLREEALRRAEAEAFRYALELLAEKFPIQKEYLLDLAEEIESQIRSLSGVDVEDVRKFLDKEWAWVKELLAEHPAELAEVEAARAARLAELRAEVEAKVAA | 0.718 nM
6 | E5S (designed binder) MTLQSLLREEALRRAEAEAFRYALELLAEKFPEQKEYLLDLAEEIESQIRSLSGVDVEDVRKFLDKEWAWVKELLAEHPAELAEVEAARAARLAELRAEVEAKVAA | 0.49 nM
7 | L27V (designed binder) MTLQELLREEALRRAEAEAFRYALELVAEKFPEQKEYLLDLAEEIESQIRSLSGVDVEDVRKFLDKEWAWVKELLAEHPAELAEVEAARAARLAELRAEVEAKVAA | 1.54 nM
8 | E9T (designed binder) MTLQELLRTEALRRAEAEAFRYALELLAEKFPEQKEYLLDLAEEIESQIRSLSGVDVEDVRKFLDKEWAWVKELLAEHPAELAEVEAARAARLAELRAEVEAKVAA | 0.956 nM
9 | L27T (designed binder) MTLQELLREEALRRAEAEAFRYALELTAEKFPEQKEYLLDLAEEIESQIRSLSGVDVEDVRKFLDKEWAWVKELLAEHPAELAEVEAARAARLAELRAEVEAKVAA | 0.539 nM
10 | R8F (designed binder) MTLQELLFEEALRRAEAEAFRYALELLAEKFPEQKEYLLDLAEEIESQIRSLSGVDVEDVRKFLDKEWAWVKELLAEHPAELAEVEAARAARLAELRAEVEAKVAA | 0.49 nM
11 | L26A (designed binder) MTLQELLREEALRRAEAEAFRYALEALAEKFPEQKEYLLDLAEEIESQIRSLSGVDVEDVRKFLDKEWAWVKELLAEHPAELAEVEAARAARLAELRAEVEAKVAA | 0.718 nM
12 | E29L (designed binder) MTLQELLREEALRRAEAEAFRYALELLALKFPEQKEYLLDLAEEIESQIRSLSGVDVEDVRKFLDKEWAWVKELLAEHPAELAEVEAARAARLAELRAEVEAKVAA | 0.539 nM
13 | F20A (designed binder) MTLQELLREEALRRAEAEAARYALELLAEKFPEQKEYLLDLAEEIESQIRSLSGVDVEDVRKFLDKEWAWVKELLAEHPAELAEVEAARAARLAELRAEVEAKVAA | 2.05 nM
14 | L7G (designed binder) MTLQELGREEALRRAEAEAFRYALELLAEKFPEQKEYLLDLAEEIESQIRSLSGVDVEDVRKFLDKEWAWVKELLAEHPAELAEVEAARAARLAELRAEVEAKVAA | 16.7 nM
15 | R13L (designed binder) MTLQELLREEALLRAEAEAFRYALELLAEKFPEQKEYLLDLAEEIESQIRSLSGVDVEDVRKFLDKEWAWVKELLAEHPAELAEVEAARAARLAELRAEVEAKVAA | 0.49 nM

Further lines, results first:

Row | apparent Kd (screen) | Binder
16 | 0.653 nM | D59N (designed binder) MTLQELLREEALRRAEAEAFRYALELLAEKFPEQKEYLLDLAEEIESQIRSLSGVDVENVRKFLDKEWAWVKELLAEHPAELAEVEAARAARLAELRAEVEAKVAA
17 | 0.593 nM | V104Y (designed binder) MTLQELLREEALRRAEAEAFRYALELLAEKFPEQKEYLLDLAEEIESQIRSLSGVDVEDVRKFLDKEWAWVKELLAEHPAELAEVEAARAARLAELRAEVEAKYAA
18 | 0.49 nM | L82V (designed binder) MTLQELLREEALRRAEAEAFRYALELLAEKFPEQKEYLLDLAEEIESQIRSLSGVDVEDVRKFLDKEWAWVKELLAEHPAEVAEVEAARAARLAELRAEVEAKVAA
19 | 0.49 nM | A88E (designed binder) MTLQELLREEALRRAEAEAFRYALELLAEKFPEQKEYLLDLAEEIESQIRSLSGVDVEDVRKFLDKEWAWVKELLAEHPAELAEVEAERAARLAELRAEVEAKVAA
20 | 0.539 nM | L75D (designed binder) MTLQELLREEALRRAEAEAFRYALELLAEKFPEQKEYLLDLAEEIESQIRSLSGVDVEDVRKFLDKEWAWVKELDAEHPAELAEVEAARAARLAELRAEVEAKVAA
21 | 0.539 nM | R50Y (designed binder) MTLQELLREEALRRAEAEAFRYALELLAEKFPEQKEYLLDLAEEIESQIYSLSGVDVEDVRKFLDKEWAWVKELLAEHPAELAEVEAARAARLAELRAEVEAKVAA
22 | 0.49 nM | E36A (designed binder) MTLQELLREEALRRAEAEAFRYALELLAEKFPEQKAYLLDLAEEIESQIRSLSGVDVEDVRKFLDKEWAWVKELLAEHPAELAEVEAARAARLAELRAEVEAKVAA
23 | 24.4 nM | Y37V (designed binder) MTLQELLREEALRRAEAEAFRYALELLAEKFPEQKEVLLDLAEEIESQIRSLSGVDVEDVRKFLDKEWAWVKELLAEHPAELAEVEAARAARLAELRAEVEAKVAA
24 | 0.593 nM | R50M (designed binder) MTLQELLREEALRRAEAEAFRYALELLAEKFPEQKEYLLDLAEEIESQIMSLSGVDVEDVRKFLDKEWAWVKELLAEHPAELAEVEAARAARLAELRAEVEAKVAA
25 | 0.653 nM | A98M (designed binder) MTLQELLREEALRRAEAEAFRYALELLAEKFPEQKEYLLDLAEEIESQIRSLSGVDVEDVRKFLDKEWAWVKELLAEHPAELAEVEAARAARLAELRMEVEAKVAA
26 | 0.189 nM | L74W (designed binder) MTLQELLREEALRRAEAEAFRYALELLAEKFPEQKEYLLDLAEEIESQIRSLSGVDVEDVRKFLDKEWAWVKEWLAEHPAELAEVEAARAARLAELRAEVEAKVAA
27 | 0.869 nM | E84K (designed binder) MTLQELLREEALRRAEAEAFRYALELLAEKFPEQKEYLLDLAEEIESQIRSLSGVDVEDVRKFLDKEWAWVKELLAEHPAELAKVEAARAARLAELRAEVEAKVAA
28 | 0.49 nM | E46F (designed binder) MTLQELLREEALRRAEAEAFRYALELLAEKFPEQKEYLLDLAEEIFSQIRSLSGVDVEDVRKFLDKEWAWVKELLAEHPAELAEVEAARAARLAELRAEVEAKVAA
29 | 0.49 nM | K72S (designed binder) MTLQELLREEALRRAEAEAFRYALELLAEKFPEQKEYLLDLAEEIESQIRSLSGVDVEDVRKFLDKEWAWVSELLAEHPAELAEVEAARAARLAELRAEVEAKVAA
30 | 0.304 nM | E46C (designed binder) MTLQELLREEALRRAEAEAFRYALELLAEKFPEQKEYLLDLAEEICSQIRSLSGVDVEDVRKFLDKEWAWVKELLAEHPAELAEVEAARAARLAELRAEVEAKVAA
31 | 0.49 nM | A42G (designed binder) MTLQELLREEALRRAEAEAFRYALELLAEKFPEQKEYLLDLGEEIESQIRSLSGVDVEDVRKFLDKEWAWVKELLAEHPAELAEVEAARAARLAELRAEVEAKVAA
32 | 0.49 nM | V100T (designed binder) MTLQELLREEALRRAEAEAFRYALELLAEKFPEQKEYLLDLAEEIESQIRSLSGVDVEDVRKFLDKEWAWVKELLAEHPAELAEVEAARAARLAELRAETEAKVAA
33 | 0.869 nM | A69H (designed binder) MTLQELLREEALRRAEAEAFRYALELLAEKFPEQKEYLLDLAEEIESQIRSLSGVDVEDVRKFLDKEWHWVKELLAEHPAELAEVEAARAARLAELRAEVEAKVAA
34 | 0.79 nM | L38Y (designed binder) MTLQELLREEALRRAEAEAFRYALELLAEKFPEQKEYYLDLAEEIESQIRSLSGVDVEDVRKFLDKEWAWVKELLAEHPAELAEVEAARAARLAELRAEVEAKVAA
35 | 0.49 nM | L96P (designed binder) MTLQELLREEALRRAEAEAFRYALELLAEKFPEQKEYLLDLAEEIESQIRSLSGVDVEDVRKFLDKEWAWVKELLAEHPAELAEVEAARAARLAEPRAEVEAKVAA
